For this test, the target named is T1, native human CD4 on the cell surface (human, UniProt P01730 26-458).
T1 construct: whole, on cells; also called CD4 on SupT1 cells; CD4 on human PBL/PBMC
The test is described as follows: flow cytometry on SupT1 cells; half-maximal fluorescence, four-parameter fit. The procedure:
The avidity and affinity determinations described above were performed with recombinant CD4 (rCD4). To determine the avidity of the human monoclonal antibodies for native CD4 (nCD4). […] Specifically, serial dilutions of antibody were incubated with SupT1 cells for 6 hr on ice, washed and detected any bound antibody with FITC-goat anti-human Fcγ.
*Human monoclonal antibodies were incubated in serial dilutions with SupT1 cells for 6 hrs, washed twice and incubated with FITC-conjugated goat anti-human Fcγ antisera, washed and fixed. The Ka was calculated from the concentration of antibody yielding one-half of the maximum fluorescence as determined from a four-parameter fit.
For orientation: Flow cytometry measures light scatter and fluorescence of single cells or particles in a stream.

B1: human IgG kappa anti-CD4 monoclonal antibody 6G5 (antibody, V domains shown)
VH: QVQLQQWGAGLLKPSETLSLTCAVYGGSFSGYYWSWIRQPPGKGLEWIGEINHSGSTNYNPSLKSRVTISVDTSKNQFSLKLSSVTAADTAVYYCARVINWFDPWGQGTLVTVSS
VL: DIQMTQSPSSVSASVGDRVTITCRASQDISSWLAWYQHKPGKAPKLLIYAASSLQSGVPSRFSGSGSGTDFTLTISSLQPEDFATYYCQQANSFPYTFGQGTKLEIK
notes: Human IgG1 kappa from hybridoma of an HC2/KCo5/JHD/JCKD mouse; CDR3 VINWFDP (VH4-34, JH5); l.c; also called 6G5.1
The molecule B1 returned a Ka of 1.9e+09 M⁻¹.

B2: human IgG kappa anti-CD4 monoclonal antibody 10C5 (antibody, V domains shown)
VH: B1 VH
VL: B1 VL
notes: Human IgG1 kappa from hybridoma of an HC2/KCo5/JHD/JCKD mouse; CDR3 VINWFDP (VH4-34, JH5); l.c; same primary B cell as 6G5; also called 10C5.6
B2 came in with a Ka of 1.8e+09 M⁻¹.

The values above are taken from patent US20100287629A1 (published 2010).
